To fix the notation:
B1: human βTrCP protein (h-βTrCP) (other)
chain: MDPAEAVLQEKALKFMNSSEREDCNNGEPPRKIIPEKNSLRQTYNSCARLCLNQETVCLASTAMKTENCVAKTKLANGTSSMIVPKQRKLSASYEKEKELCVKYFEQWSESDQVEFVEHLISQMCHYQHGHINSYLKPMLQRDFITALPARGLDHIAENILSYLDAKSLCAAELVCKEWYRVTSDGMLWKKLIERMVRTDSLWRGLAERRGWGQYLFKNKPPDGNAPPNSFYRALYPKIIQDIETIESNWRCGRHSLQRIHCRSETSKGVYCLQYDDQKIVSGLRDNTIKIWDKNTLECKRILTGHTGSVLCLQYDERVIITGSSDSTVRVWDVNTGEMLNTLIHHCEAVLHLRFNNGMMVTCSKDRSIAVWDMASPTDITLRRVLVGHRAAVNVVDFDDKYIVSASGDRTIKVWNTSTCEFVRTLNGHKRGIACLQYRDRLVVSGSSDNTIRLWDIECGACLRVLEGHEELVRCIRFDNKRIVSGAYDGKIKVWDLVAALDPRAPAGTLCLRTLVEHSGRVFRLQFDEFQIVSSSHDDTILIWDFLNDPAAQAEPPRSPSRTYTYISR
notes: 569 amino acids; also called whole h-βTrCP protein
B2: IκBα S32-36A (IκBα mutant at serines S32 and S36 so that there is no phosphorylation) (other, UniProt P25963 1-317, looked up)
chain: MFQAAERPQEWAMEGPRDGLKKERLLDDRHDAGLDAMKDEEYEQMVKELQEIRLEPQEVPRGSEPWKQQLTEDGDSFLHLAIIHEEKALTMEVIRQVKGDLAFLNFQNNLQQTPLHLAVITNQPEIAEALLGAGCDPELRDFRGNTPLHLACEQGCLASVGVLTQSCTTPHLHSILKATNYNGHTCLHLASIHGYLGIVELLVSLGADVNAQEPCNGRTALHLAVDLQNPDLVSLLLKCGADVNRVTYQGYSPYQLTWGRPSTRIQQQLGQLTLENLQMLPESEDEESYDTESEFTEFTEDELPYDDCVFGGQRLTL
notes: Two-hybrid hybrid; also called IκBα S32-36AA
B3: cytoplasmic region of CD4 (CD4c) (receptor, UniProt P01730 419-458, looked up)
chain: CVRCRHRRRQAERMSQIKRLLSEKKTCQCPHRFQKTCSPI
notes: domain: cytoplasmic region; Two-hybrid fusion; also called CD4 cytoplasmic domain
B4: βCat1→130 S33-37AA (oncogenic β-catenin protein mutated on serine residues S33 and S37 so that there is no phosphorylation) (other, UniProt P35222 1-130, looked up)
chain: MATQADLMELDMAMEPDRKAAVSHWQQQSYLDAGIHAGATTTAPSLSGKGNPEEEDVDTSQVLYEWEQGFSQSFTQEQVADIDGQYAMTRAQRVRAAMFPETLDEGMQIPSTQFDAAHPTNVQRLAEPSQ
notes: range 1-130; also called mutated β-catenin

In experiment [1] the target is endogenous IκBα protein of 293 or Hela cells, phosphorylated form (human) (UniProt P25963). Nature of the experiment: cell-based or functional assay.
Experiment [2] concerns the target T1, βCat (whole normal β-catenin protein) (UniProt P35222 1-781).
T1 construct: Two-hybrid hybrid; also called whole β-catenin protein
T1 sequence (looked up): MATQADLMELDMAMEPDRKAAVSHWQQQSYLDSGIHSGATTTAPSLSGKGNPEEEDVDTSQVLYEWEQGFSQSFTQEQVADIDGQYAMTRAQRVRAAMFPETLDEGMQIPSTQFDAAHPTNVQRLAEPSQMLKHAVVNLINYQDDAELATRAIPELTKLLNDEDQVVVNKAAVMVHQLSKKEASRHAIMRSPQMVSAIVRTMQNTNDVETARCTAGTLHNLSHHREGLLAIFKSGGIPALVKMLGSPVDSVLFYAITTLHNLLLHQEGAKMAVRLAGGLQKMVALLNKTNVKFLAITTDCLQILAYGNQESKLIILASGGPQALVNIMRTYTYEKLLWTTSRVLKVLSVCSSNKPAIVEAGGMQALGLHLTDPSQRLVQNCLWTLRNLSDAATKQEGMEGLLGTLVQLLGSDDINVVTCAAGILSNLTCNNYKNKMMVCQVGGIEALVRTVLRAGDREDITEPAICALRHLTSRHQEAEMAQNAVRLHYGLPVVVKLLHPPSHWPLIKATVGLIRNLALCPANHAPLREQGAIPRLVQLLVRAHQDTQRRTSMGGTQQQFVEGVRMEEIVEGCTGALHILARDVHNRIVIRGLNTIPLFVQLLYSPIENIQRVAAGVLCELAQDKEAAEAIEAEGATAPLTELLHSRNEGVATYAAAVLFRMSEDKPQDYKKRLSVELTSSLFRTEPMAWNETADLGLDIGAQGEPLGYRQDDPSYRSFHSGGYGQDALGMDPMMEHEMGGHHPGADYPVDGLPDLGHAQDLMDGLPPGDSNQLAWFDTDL
Nature of the experiment: yeast two-hybrid, FIG. 10.

Experiment [3] concerns the target B1. Kind of experiment: yeast two-hybrid.
Experiment [4] has as its target human Skp1p protein (human, UniProt P63208 1-163). Nature of the experiment: yeast two-hybrid (strain L40).
Experiment [5] has as its target B1. Nature of the experiment: yeast two-hybrid (His3 and LacZ reporters).
In experiment [6] the target is T2, KIAA 0696 (βTrCP2), human βTrCP protein isolated by ISHIKAWA et al. (human, UniProt Q9UKB1 1-542, limits assumed).
T2 construct: Two-hybrid hybrid; also called βTCP2; KIA 696
T2 sequence (looked up): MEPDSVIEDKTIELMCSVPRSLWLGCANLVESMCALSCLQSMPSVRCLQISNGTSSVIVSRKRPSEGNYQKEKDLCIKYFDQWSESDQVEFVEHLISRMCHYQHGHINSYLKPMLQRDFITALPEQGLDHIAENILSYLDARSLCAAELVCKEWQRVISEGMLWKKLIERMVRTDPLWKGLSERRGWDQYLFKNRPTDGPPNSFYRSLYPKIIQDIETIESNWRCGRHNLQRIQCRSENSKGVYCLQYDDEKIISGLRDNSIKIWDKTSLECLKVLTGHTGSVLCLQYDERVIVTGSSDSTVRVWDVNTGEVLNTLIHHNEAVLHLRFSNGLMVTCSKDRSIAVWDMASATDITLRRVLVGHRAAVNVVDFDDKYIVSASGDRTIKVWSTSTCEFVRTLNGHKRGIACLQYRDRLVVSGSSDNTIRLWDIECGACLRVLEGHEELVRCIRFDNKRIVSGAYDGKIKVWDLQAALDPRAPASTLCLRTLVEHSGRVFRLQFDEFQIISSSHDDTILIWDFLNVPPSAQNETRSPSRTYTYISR
Kind of experiment: yeast two-hybrid.

human Skp1p protein, sequence (P63208 whole entry): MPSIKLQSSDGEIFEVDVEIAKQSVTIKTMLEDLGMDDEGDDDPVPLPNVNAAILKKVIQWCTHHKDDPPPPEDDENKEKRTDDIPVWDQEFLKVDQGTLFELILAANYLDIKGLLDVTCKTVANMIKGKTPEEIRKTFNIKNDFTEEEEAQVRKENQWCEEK

Turning to “h-βTrCPΔF fragment (deleted residues: 32 to 179) (from UniProt Q9Y297 1-605)”, the fold decrease in transcription activation induced by TNFα (NFκB-dependent luciferase reporter, FIG. 7) in experiment [1] was found to be 20 fold.
As for B1, in experiment [2], the binding result is “binds”.
Regarding B2, in experiment [3], the binding result was “no binding”.
With B3, the binding result in experiment [4] and in experiment [5] was “no binding” each time.
B4: the binding result in experiment [3] and in experiment [6] was “no binding” in each case.

The values above are taken from US6730486 (INSTITUT NATIONAL DE LA SANTE ET DE LA RECHERCHE MEDICALE, dated 2004).
